This note sets out measurements from US20240360203A1.

Assay in all cases: cell-based or functional assay
The target in assay [1] is SARS-CoV-2 BA.1.1 + P1162S spike protein (SARS-CoV-2).
Assay [2] deals with SARS-CoV-2 BA.5.8 + P1162L spike protein (SARS-CoV-2).
In assay [3] the target is SARS-CoV-2 D614G spike protein (SARS-CoV-2) (UniProt P0DTC2).
For assay [4], the target named is SARS-CoV-2 BA.4/5+K444T Spike on pseudovirus (SARS-CoV-2) (UniProt P0DTC2).
Assay [5] concerns the target SARS-CoV-2 D614G spike protein (SARS-CoV-2) (UniProt P0DTC2). The source holds these as a separate data set.
The target is the same in assay [6]. The source holds these as a separate data set.
Assay [7] has the same target. The source holds these as a separate data set.
Assay [8] shares this target. The source holds these as a separate data set.

Where two headings read alike, the source gives them in different places.

As for Bebtelovimab (antibody), in assay [1], the pseudovirus neutralization EC50 is 0.12 ng/mL, the pseudovirus neutralization EC80 amounted to 1.4 ng/mL, the pseudovirus neutralization EC90 was determined as 6 ng/mL and the pseudovirus neutralization Emax (% neutralization) is 100. Also, in assay [2], the pseudovirus neutralization EC50 turned out to be 0.13 ng/mL, the pseudovirus neutralization EC80 is 1.1 ng/mL, the pseudovirus neutralization EC90 is 3.7 ng/mL and the pseudovirus neutralization Emax (% neutralization) was determined as 99.9. Besides, in assay [3], the pseudovirus neutralization EC50 is 0.57 ng/mL; the pseudovirus neutralization EC50, TMPRSS2-Vero E6 (bebtelovimab + isotype) is 1.7 ng/mL; the pseudovirus neutralization EC50, Vero E6 (bebtelovimab + isotype) is 0.64 ng/mL; the pseudovirus neutralization EC80 was 4.9 ng/mL. In assay [3], the pseudovirus neutralization EC80, TMPRSS2-Vero E6 (bebtelovimab + isotype) is 11 ng/mL; the pseudovirus neutralization EC80, Vero E6 (bebtelovimab + isotype) turned out to be 2.7 ng/mL; the pseudovirus neutralization EC90 came to 18 ng/mL; the pseudovirus neutralization EC90, TMPRSS2-Vero E6 (bebtelovimab + isotype) stood at 32 ng/mL. In addition, in assay [3], the pseudovirus neutralization EC90, Vero E6 (bebtelovimab + isotype) amounted to 6.1 ng/mL; the pseudovirus neutralization Emax (% neutralization) turned out to be 99.9; the pseudovirus neutralization Emax, TMPRSS2-Vero E6 (bebtelovimab + isotype) (% neutralization) is 99.4; the pseudovirus neutralization Emax, Vero E6 (bebtelovimab + isotype) (% neutralization) was 99.4. Further, in assay [4], the IC50, pseudovirus neutralization was 1220 ng/mL. Further, the pseudovirus neutralization EC50, Vero E6 (bebtelovimab + isotype) in assay [5] is 0.29 ng/mL. Further, the pseudovirus neutralization EC80, Vero E6 (bebtelovimab + isotype) in assay [6] came out at 2.9 ng/mL. Besides, in assay [7], the pseudovirus neutralization EC90, Vero E6 (bebtelovimab + isotype) came to 11 ng/mL. For the same substance, in assay [8], the pseudovirus neutralization Emax, Vero E6 (bebtelovimab + isotype) (% neutralization) stood at 99.7.

For Sotrovimab VH/VL-huIgG1-LS (antibody), in assay [3], the pseudovirus neutralization EC50, Vero E6 amounted to 35.2 ng/mL. For the same substance, in assay [5], the pseudovirus neutralization EC50, Vero E6 (sotrovimab VH/VL-huIgG1-LS + isotype) came to 14 ng/mL. Further, the pseudovirus neutralization EC80, Vero E6 (sotrovimab VH/VL-huIgG1-LS + isotype) in assay [6] was found to be 69 ng/mL. The pseudovirus neutralization EC90, Vero E6 (sotrovimab VH/VL-huIgG1-LS + isotype) in assay [7] turned out to be 170 ng/mL. Also, the pseudovirus neutralization Emax, Vero E6 (sotrovimab VH/VL-huIgG1-LS + isotype) (% neutralization) in assay [8] is 98.3.

As for Sotrovimab VH/VL-hamIgG2a (antibody), in assay [3], the pseudovirus neutralization EC50, Vero E6 amounted to 8.51 ng/mL.

Substance “Sotrovimab VH/VL (human IgG1 molecule expressing the same variable regions of Sotrovimab) (antibody)” came in with an IC50, pseudovirus neutralization in assay [4] of 304 ng/mL.

Sotrovimab VH/VL-huIgG1 (antibody): in assay [3], the pseudovirus neutralization EC50, Vero E6 is 27.9 ng/mL.
